Biological target: the molecule itself
Assay: SEC; mixtures of the purified proteins; details in the Supporting Information

B1: PanD(K119A) (enzyme, E. coli, UniProt P0A790 1-126, looked up)
chain: MIRTMLQGKLHRVKVTHADLHYEGSCAIDQDFLDAAGILENEAIDIWNVTNGKRFSTYAIAAERGSRIISVNGAAAHCASVGDIVIIASFVTMPDEEARTWRPNVAYFEGDNEMKRTAAAIPVQVA
stoichiometry N: 4

B2: aspartate α-decarboxylase (PanD), wild type (from pET28apanD, for SEC) (enzyme, E. coli, UniProt P0A790 1-126, looked up)
chain: MIRTMLQGKLHRVKVTHADLHYEGSCAIDQDFLDAAGILENEAIDIWNVTNGKRFSTYAIAAERGSRIISVNGAAAHCASVGDIVIIASFVTMPDEEARTWRPNVAYFEGDNEMKRTAKAIPVQVA
stoichiometry N: 4
